# Experimental data reported in the RNAGym collection of RNA variant scans (doi:10.1073/pnas.2313332121).
# B1: TPR t1 (parent)
# chain: GACCAAUCUGCCCUCAGAGCUCGAGAACAUCUUCGGAUGCAGAGGAGGCAGGCUUCGGUGGCGCGAUAGCGCCAACGUCCUCAACCUCCAAUGCAUCCCACCACAUGAUGAUGCCUGAAGAGCCUUGGUUUUUUG
# Variants of: B1
# Assay: polymerase ribozyme fitness, log enrichment relative to wild type (log ratio); higher = more active; in vitro selection for triplet polymerase activity
# In short: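 Each subunit of a heterodimeric triplet polymerase ribozyme was mutagenized into a library by PCR, transcribed, and subjected to one round of in vitro selection, run in triplicate. Libraries were annealed with a biotinylated primer, the partner subunit and triplets, incubated frozen at −7 °C, and extended constructs were gel-excised, captured on streptavidin beads and recovered by RT-PCR. Input and output libraries were sequenced on Illumina, keeping genotypes with ≥10 input reads and ≥1 read per output. Fitness is log base 2 of genotype enrichment divided by wild-type enrichment, from inverse-variance-weighted replicate averages.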
row,Variant,polymerase ribozyme fitness (log ratio)
1,U33C G60A,-4.87
2,C34A A46G U54G,-2.69
3,U32A C40U C101A,-4.24
4,U33G C76G C88A C115U,-6.6
5,U33G G61A A121U G127U U133A,-3.67
6,U32G C49A C70U A74G A83G G93C C114A U125G,-7.4
7,U32A U38C G69C A95U,-6.24
8,C34A G71C U129C,-5.07
9,C34A C56G G117A,-5.64
10,C34A G61U U112G C123A,-4.54
11,U32C G63A A74U,-3.86
12,U32C C40G G57U G117C G120A,-6.56
13,C34A G71A U78C C94U U125A,-5.82
14,U33G G93A A100U C114U,-7.04
15,C34A U78C C88U,-1.84
16,U32C G60C A75C C79G A118U,-1.88
17,C34A U87A A90G,-2.87
18,U32A U59C,-3.8
19,C34A C56A C104U,-2.11
20,U33C G39U,-5.33
21,C34A G65U C82G A111G U116G,-6.99
22,U32C A46U G63C C104A G117C,-6.2
23,C31U U54G U59C A103C A111C,-5.45
24,U33G G48U G60A C97G G120A,-7.27

row,Variant,polymerase ribozyme fitness (log ratio)
1,C34A C40A C49G G77A U112A C115G,-7.22
2,C34A G39U C73G C98A,-4.33
3,C31U G110A,-4.35
4,C34A G42A G61A G117C U131C,-7.25
5,U32C C70G A74C,-5.82
6,U32C C49U C53U A75G A83C C99U,-5.45
7,U32C U54C G71C A95C,-3.01
8,U33G C72A C85G A90G G120C U129G,-7.02
9,C34A C40U C85A,-5.11
10,C34A G35A C86G U112C,-4.41
11,U33C G69U,-1.74
12,U32C C56U C72U A111U,-3.66
13,U32C A41C,-1.24
14,C34A C89U,-4.08
15,C34A C89A,-5.68
16,U33G G39C G110U,-6.35
17,U32C G47U G48U C76U U112G,-4.6
18,U33A A66G C123A,-6.2
19,C31U G63U G107A,-2.29
20,C31U U81C G120U,-6.22
21,C34A C72A C102U,-2.07
22,U32C G48A G52U A66U C114A,-5.75
23,U32A U33C A121U G135A,-4.41
24,U32C G113U,-2.9

row,Variant,polymerase ribozyme fitness (log ratio)
1,C34A C97G,-4.18
2,C34A C72U U116G,-5.21
3,U33G U59G G110A,-5.54
4,C34A C72U G110U,-6.56
5,U33A C88G,-4.9
6,C34A A100G,-5.07
7,C34A U55C G60A U129G,-4.44
8,U32A C72U,-5
9,U32A C72G,-3.95
10,U33G G35U G69U U78G A91C C114G G128C U132A G135A,-5.79
11,U32G C82U A121C,-6.01
12,U32C G61A U67G C82U,-7.29
13,C34A G60C A100G,-5.76
14,C34A G127C,-3.8
15,C34A C64U,-2.37
16,U32G G39A U106C,-4.98
17,U32C A100C,-1.02
18,C34A G113C,-5.75
19,C34A G113A,-4.03
20,U32C C72G G117U U134G,-1.41
21,U33A G36U,-4.74
22,C34A C73A,-2.46
23,U32C G36A U92A A105U C123A C124G,-5.91
24,U32G A68U C80A C101U A111U U126G,-6.67

row,Variant,polymerase ribozyme fitness (log ratio)
1,C34A C82A,-2.72
2,C34A C70A,-4.06
3,C34A A46U A75G C102U A111G,-3.22
4,U32C A46G U109A,-3.86
5,C34A A50U C53U A121C,-4.91
6,C34G A46U,-6.06
7,U33C U132A,-4.81
8,U33A G45A G63C,-5.54
9,U32C G71A C73U,-1.78
10,U32A C34G,-6.88
11,U33C C64U,-3.44
12,U32G A37U C73U G113A,-6.09
13,U32A G48U G58A C123U,-4.55
14,C34A A121U,-0.134
15,U32C G52U G77U C79A A90G C115U U126A,-5.37
16,U33G G52C C56A G61A C79U A91G C123G U131G,-7.1
17,C34A C49G C76G U96A C124U U131G U134C,-2.1
18,C34A A50G G113U G120C,-6.31
19,U32G C115A,-5.41
20,C34A G71U,-2.95
21,U32G C72U C102U G113A,-7.34
22,U33G C64U U112G,-6.48
23,U33A A37C,-4.7
24,U33G G52C U78A C98A U112G U116G,-7.02

row,Variant,polymerase ribozyme fitness (log ratio)
1,U32C G69C C80U C101U C102U,-5.78
2,U32G A119G,-5.95
3,U33A A46U,-4.71
4,C34A C123G,-0.401
5,C34A C123U,-1.54
6,U32C G71U,-1.13
7,C34A G45U,-4.49
8,U32C U33A C104A U109G C114U A121U G122C,-5.8
9,C31U U78G C101G C104A G110A,-5.57
10,C34A G77U C98A,-2.63
11,U32C G60A C97A C124U U131A,-4.71
12,U33A C79U C94A C104U G120A,-4.61
13,U33C C79G A111U,-7.17
14,U32A A121U U133A,-1.22
15,U32G C97G A119G,-6.08
16,C34A G69C A111G,-5.23
17,C34A G58A,-2.81
18,U32C C72A C82A A83U,-0.635
19,U32A G44A C94A C99G G120U,-7.6
20,C34A C40U A41U C101A C114A G120A,-6.72
21,U32C C53U A103C,-4.2
22,U32C G42U,-2.17
23,U33A G36U G69U C99G,-5.44
24,C31U U59G C73U,-5.82

row,Variant,polymerase ribozyme fitness (log ratio)
1,U33G C104U,-5.5
2,U32G C70G C98G,-6.14
3,U33G C70U U78G,-6.53
4,U32C G44U U92G A118U U133A,-3.79
5,C34A G52U C53U A90U U106A,-4.54
6,C34A A68G A100C C123U,-5.6
7,U32C C97A C124U U131A,-4.33
8,U32A C56G,-3.79
9,U32A C56A,-3.44
10,C34A G63C A100C C104A,-6.04
11,U33G G61A C80G A91C U92A C101U C115G,-8.32
12,U33A U59A G61U U106G,-5.96
13,C34A C56A G93A C97U,-4.7
14,C34A C98U G122U,-2.46
15,U32C G63C,-0.346
16,U32C C99U,-2.13
17,C34A A37U G69C G120A,-5.05
18,U33C C124A,-2.98
19,C34A G61A,-2.98
20,C34A G60C U112G U130A U133A,-4.54
21,U32C A105G U109G G117A,-7.37
22,C31U G69U C73U A100U,-3.8
23,C31U G47U,-6.27
24,U33A U87A,-4.12

row,Variant,polymerase ribozyme fitness (log ratio)
1,C34A C102U,-1.64
2,C34A A43U,-5.98
3,C34A C72G G107U U109G A121G,-5.86
4,U32A A43C G63C,-6.22
5,C34A C114G,-5.41
6,C34A A95U,-3.54
7,C34G A43U G60C C82A A100U C114U U130C U132A U134C,-5.7
8,U32A C40U G63A A83G G120C,-7.22
9,U33A A46C G61A,-5.04
10,C34A U112A,-1.81
11,U32C G44A G61U U131G,-0.948
12,U33G U54G G58C A74G G120C,-5.75
13,U32C U112A,1.49
14,C31U U112G,-4.94
15,U32C G42C C123G,1.74
16,C34A G117U,-6.2
17,U33A C72U,-4.34
18,C34A U55A C88A,-3.93
19,C34A A84G A121G,-2.74
20,C34A U109C,-6.24
21,C34A C79G,-6.59
22,C34A C79U,-2.71
23,U32C G61U C85G,-3.56
